According to US20190055314A1:
One block for each substance: values may come before it.

How the values were obtained:
Hu_CRD1-CRD2 (human) = Hu_CRD1-CRD2 (human) (UniProt Q07011); assay: flow cytometry, yeast display [Cont.]
[1] = biological target: Hu_CRD1-CRD2-CRD3 (human) (UniProt Q07011); assay: flow cytometry, yeast display [Cont.]
Hu_CRD2 (human) = Hu_CRD2 (human) (UniProt Q07011); assay: flow cytometry, yeast display [Cont.]
Hu_CRD2-CRD3 (human) = Hu_CRD2-CRD3 (human) (UniProt Q07011); assay: flow cytometry, yeast display [Cont.]
[2] = biological target: Hu_CRD2-CRD3-CRD4 (human) (UniProt Q07011); assay: flow cytometry, yeast display [Cont.]
Hu_CRD3-CRD4 (human) = Hu_CRD3-CRD4 (human) (UniProt Q07011); assay: flow cytometry, yeast display [Cont.]
Hu_CRD4 (human) = Hu_CRD4 (human) (UniProt Q07011); assay: flow cytometry, yeast display [Cont.]
[3] = biological target: full-length human CD137 on the cell surface (human) (UniProt Q07011); assay: flow cytometry, yeast display [Cont.]
[4] = biological target: full-length mouse CD137 on the cell surface (mouse) (UniProt P20334); assay: flow cytometry, yeast display [Cont.]
[5] = biological target: full-length monkey CD137 on the cell surface (cynomolgus monkey); assay: flow cytometry, PMA/ionomycin-activated monkey T cells, antibody 100 nM
[6] = biological target: CD27 overexpressed on HEK293F cells (UniProt P26842); assay: flow cytometry, HEK293F cells expressing the receptor, antibody 100 nM [Cont.]
[7] = biological target: CD40 overexpressed on HEK293F cells (UniProt P25942); assay: as above
CD95 = assay: as above
[8] = biological target: GITR overexpressed on HEK293F cells (UniProt Q9Y5U5); assay: as above
[9] = biological target: OX40 overexpressed on HEK293F cells (UniProt P43489); assay: as above
[10] = biological target: full-length human CD137 on the cell surface (human) (UniProt Q07011); assay: as above
[11] = biological target: purified C1q component of the human complement (human) (UniProt P02745); assay: ELISA, direct binding of antibody to purified human complement C1q, A450
Sequence of purified C1q component of the human complement (human) (P02745 23-245, chain 1 of 3): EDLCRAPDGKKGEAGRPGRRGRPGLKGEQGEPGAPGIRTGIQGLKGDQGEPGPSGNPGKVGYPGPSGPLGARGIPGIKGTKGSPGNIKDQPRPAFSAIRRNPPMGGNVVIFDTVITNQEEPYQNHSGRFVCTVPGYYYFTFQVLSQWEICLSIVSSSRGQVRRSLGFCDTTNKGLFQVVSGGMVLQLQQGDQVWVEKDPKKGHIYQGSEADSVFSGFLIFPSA
Sequence of purified C1q component of the human complement (human) (P02746 28-253, chain 2 of 3, further chain): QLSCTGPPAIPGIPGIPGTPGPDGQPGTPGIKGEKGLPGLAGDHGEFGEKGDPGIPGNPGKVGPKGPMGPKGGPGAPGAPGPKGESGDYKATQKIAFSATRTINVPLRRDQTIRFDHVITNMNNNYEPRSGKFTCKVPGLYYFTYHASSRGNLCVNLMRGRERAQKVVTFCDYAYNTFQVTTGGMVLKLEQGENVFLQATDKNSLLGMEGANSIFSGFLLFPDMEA
Sequence of purified C1q component of the human complement (human) (P02747 29-245, chain 3 of 3, further chain): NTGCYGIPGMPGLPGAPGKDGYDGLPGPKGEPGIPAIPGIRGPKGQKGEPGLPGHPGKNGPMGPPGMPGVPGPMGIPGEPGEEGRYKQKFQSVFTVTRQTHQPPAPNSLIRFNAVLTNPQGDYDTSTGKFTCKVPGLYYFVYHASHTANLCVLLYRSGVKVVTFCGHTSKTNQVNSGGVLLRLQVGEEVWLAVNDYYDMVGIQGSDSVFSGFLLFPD

Sequence of full-length human CD137 on the cell surface (human) (Q07011 18-255): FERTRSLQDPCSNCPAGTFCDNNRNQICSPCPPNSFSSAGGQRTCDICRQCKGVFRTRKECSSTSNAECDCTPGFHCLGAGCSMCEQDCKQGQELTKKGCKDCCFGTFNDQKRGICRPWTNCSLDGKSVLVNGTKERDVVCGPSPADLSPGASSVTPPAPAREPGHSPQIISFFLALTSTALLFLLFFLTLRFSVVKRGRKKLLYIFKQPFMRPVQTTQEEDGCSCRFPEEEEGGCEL
Sequence of Hu_CRD2 (human) (Q07011 46-86 limits assumed): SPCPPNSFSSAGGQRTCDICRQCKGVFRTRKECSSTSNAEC
Sequence of full-length mouse CD137 on the cell surface (mouse) (P20334 24-178 limits assumed): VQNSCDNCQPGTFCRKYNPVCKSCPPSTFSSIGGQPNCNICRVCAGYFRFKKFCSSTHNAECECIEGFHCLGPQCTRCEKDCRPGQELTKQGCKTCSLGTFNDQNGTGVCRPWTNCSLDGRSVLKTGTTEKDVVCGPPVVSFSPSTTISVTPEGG
Sequence of Hu_CRD1-CRD2-CRD3 (human) (Q07011 24-118 limits assumed): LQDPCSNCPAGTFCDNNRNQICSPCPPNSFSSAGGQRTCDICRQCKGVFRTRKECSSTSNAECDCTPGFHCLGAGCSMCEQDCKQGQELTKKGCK
Sequence of Hu_CRD3-CRD4 (human) (Q07011 87-159 limits assumed): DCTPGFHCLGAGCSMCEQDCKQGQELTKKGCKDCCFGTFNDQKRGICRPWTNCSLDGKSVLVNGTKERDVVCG
Sequence of Hu_CRD2-CRD3 (human) (Q07011 46-118 limits assumed): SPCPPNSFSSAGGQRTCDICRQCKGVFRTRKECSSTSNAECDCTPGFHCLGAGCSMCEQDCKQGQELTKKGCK
Sequence of Hu_CRD2-CRD3-CRD4 (human) (Q07011 46-159 limits assumed): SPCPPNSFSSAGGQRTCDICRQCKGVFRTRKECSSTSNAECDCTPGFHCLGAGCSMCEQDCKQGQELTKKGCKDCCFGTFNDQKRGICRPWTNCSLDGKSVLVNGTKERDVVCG
Sequence of Hu_CRD4 (human) (Q07011 119-159 limits assumed): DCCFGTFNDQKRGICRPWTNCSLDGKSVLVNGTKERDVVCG
Sequence of Hu_CRD1-CRD2 (human) (Q07011 24-86 limits assumed): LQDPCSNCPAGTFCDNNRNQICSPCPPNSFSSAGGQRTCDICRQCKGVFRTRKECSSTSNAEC
Sequence of CD27 overexpressed on HEK293F cells (P26842 20-260 limits assumed): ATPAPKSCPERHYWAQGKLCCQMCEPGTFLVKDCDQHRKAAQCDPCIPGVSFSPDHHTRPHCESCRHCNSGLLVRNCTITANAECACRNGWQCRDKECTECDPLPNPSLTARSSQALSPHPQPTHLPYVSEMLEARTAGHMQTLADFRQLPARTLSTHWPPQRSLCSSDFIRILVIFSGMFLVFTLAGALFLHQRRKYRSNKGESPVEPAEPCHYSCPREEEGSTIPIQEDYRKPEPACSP
Sequence of CD95 (chain, as listed by the source limits assumed): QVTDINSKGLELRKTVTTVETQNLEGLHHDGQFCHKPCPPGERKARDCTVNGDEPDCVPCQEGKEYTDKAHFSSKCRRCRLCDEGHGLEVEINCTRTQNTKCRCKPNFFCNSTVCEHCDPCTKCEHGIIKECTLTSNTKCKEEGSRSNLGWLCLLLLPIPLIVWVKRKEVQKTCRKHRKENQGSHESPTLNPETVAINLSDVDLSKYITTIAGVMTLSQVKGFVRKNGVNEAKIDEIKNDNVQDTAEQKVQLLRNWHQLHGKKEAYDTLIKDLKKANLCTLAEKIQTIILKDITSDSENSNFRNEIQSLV
Sequence of OX40 overexpressed on HEK293F cells (P43489 29-277 limits assumed): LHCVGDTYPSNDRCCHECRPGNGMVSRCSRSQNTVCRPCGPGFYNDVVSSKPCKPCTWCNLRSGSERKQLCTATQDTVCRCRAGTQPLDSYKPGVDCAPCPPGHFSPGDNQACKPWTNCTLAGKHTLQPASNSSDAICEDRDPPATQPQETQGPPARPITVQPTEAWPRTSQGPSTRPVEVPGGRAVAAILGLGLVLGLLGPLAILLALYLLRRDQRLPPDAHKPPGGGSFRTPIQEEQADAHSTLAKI
Sequence of GITR overexpressed on HEK293F cells (Q9Y5U5 26-241 limits assumed): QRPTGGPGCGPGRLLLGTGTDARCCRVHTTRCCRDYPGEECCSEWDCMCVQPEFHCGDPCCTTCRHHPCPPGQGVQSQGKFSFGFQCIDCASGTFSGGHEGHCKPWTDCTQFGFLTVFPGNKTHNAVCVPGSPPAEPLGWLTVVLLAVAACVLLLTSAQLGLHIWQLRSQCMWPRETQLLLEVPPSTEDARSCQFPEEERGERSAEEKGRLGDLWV
Sequence of CD40 overexpressed on HEK293F cells (P25942 21-277 limits assumed): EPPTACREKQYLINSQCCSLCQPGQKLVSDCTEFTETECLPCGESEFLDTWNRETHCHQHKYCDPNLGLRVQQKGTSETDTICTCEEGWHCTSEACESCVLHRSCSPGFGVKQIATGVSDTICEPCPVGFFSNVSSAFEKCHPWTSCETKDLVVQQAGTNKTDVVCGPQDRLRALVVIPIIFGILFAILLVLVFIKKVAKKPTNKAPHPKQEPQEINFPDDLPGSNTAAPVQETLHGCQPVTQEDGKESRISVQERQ
Sequence of full-length monkey CD137 on the cell surface (cynomolgus monkey) (Q07011 other isoform, or with tags, fused parts or gaps): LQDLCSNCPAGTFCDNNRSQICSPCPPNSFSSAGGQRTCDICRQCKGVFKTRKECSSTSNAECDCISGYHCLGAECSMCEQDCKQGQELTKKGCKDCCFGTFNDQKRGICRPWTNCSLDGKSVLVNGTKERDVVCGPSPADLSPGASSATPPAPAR

- % in upper right quadrant (Hu_CRD1-CRD2 (human)): 0.15%
- Mean (Hu_CRD1-CRD2 (human)): 5560
- % in upper right quadrant [1]: 0.1%
- Mean [1]: 3680
- % in upper right quadrant (Hu_CRD2 (human)): 0.18%
- Mean (Hu_CRD2 (human)): 4650
- % in upper right quadrant (Hu_CRD2-CRD3 (human)): 0.14%
- Mean (Hu_CRD2-CRD3 (human)): 6280
- % in upper right quadrant [2]: 0.2%
- Mean [2]: 15000
- % in upper right quadrant (Hu_CRD3-CRD4 (human)): 0.17%
- Mean (Hu_CRD3-CRD4 (human)): 6860
- % in upper right quadrant (Hu_CRD4 (human)): 0.23%
- Mean (Hu_CRD4 (human)): 11000
- % in upper right quadrant [3]: 0.14%
- Mean [3]: 9600
- % in upper right quadrant [4]: 0.18%
- Mean [4]: 14800
- % of cells positive for antibody binding [5]: 1.5%
- Mean [6]: 48100
- Median [7]: 5730
- Mean (CD95): 5140
- Mean [8]: 8970
- Mean [9]: 5300
- Mean [10]: 7360
Substance: Isotype (antibody)

- EC50 (read off the curve) [11]: 2 nM
Substance: human IgG1 isotype control antibody

- % in upper right quadrant (Hu_CRD2 (human)): 0.16%
- Mean (Hu_CRD2 (human)): 14600
Substance: mouse CD137L (from UniProt P41274 104-309) (ligand)
